From PMC11811190, “Cryo-EM structures of the BAF-Lamin A/C complex bound to nucleosomes” (Nature Communications, 2025)

How the values were obtained:
[1] = target: T1, Lamin A/C IgF domain (411-566) (human, UniProt P02545 411-566); test: cryo-EM structure; BAF-Lamin A/C IgF-nucleosome complex, high gel mobility (fraction 1); BAF 3-fold, Lamin A/C IgF 6-fold over 0.93 uM nucleosome (193 bp DNA), 30 min 30 °C, GraFix with glutaraldehyde; 3.82 Å; details: both partners purified
T1 construct: Lamin A/C, human, residues 411-566 (IgF domain); MBP cut on-column with TEV protease; also called Lamin A/C (411-566); Ig-fold domain of Lamin A/C; source: E. coli Rosetta 2 (DE3), purified (amylose resin, Superdex 75); not shown: MBP, N-terminal, cleaved
T1 sequence (looked up): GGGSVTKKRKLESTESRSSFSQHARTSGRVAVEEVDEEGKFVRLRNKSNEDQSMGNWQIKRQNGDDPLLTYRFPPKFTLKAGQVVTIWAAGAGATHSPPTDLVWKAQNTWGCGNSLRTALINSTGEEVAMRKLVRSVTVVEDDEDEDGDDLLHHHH

[2] = target: the molecule itself; test: as above

binding result [1]: binds
B1: Barrier-to-autointegration factor (BAF) (natural protein, human, UniProt O75531 1-89, looked up)
chain: MTTSQKHRDFVAEPMGEKPVGSLAGIGEVLGKKLEERGFDKAYVVLGQFLVLKKDEDLFREWLKDTCGANAKQSRDCFGCLREWCDAFL
notes: Barrier-to-autointegration factor (BAF), human, full length; His tag cut with thrombin; also called human BAF; full-length BAF; not shown: His6, N-terminal, cleaved
binding result [2]: binds
